Results: US20250223332A1 (BOARD OF TRUSTEES OF THE UNIVERSITY OF ILLINOIS, published 2025)

Legend:
[1] = molecular target: T1, hDLL4-Fc (Sino Biologics) (human, UniProt Q9NR61 27-524, limits assumed); test: SPR (Biacore T200), hDLL4-Fc on the chip, decoy as analyte, KD = kd/ka
T1 construct: Bought from Sino Biologics; also called Recombinant Fc-tagged hDLL4; recombinant hDLL4; not shown: Fc tag of the bought protein
Description: (§1) Affinity Analysis. The binding kinetics of N1₁₀₋₁₄Fc and N4₁₀₋₁₄Fc were analyzed using a Surface Plasmon Resonance (SPR)-based assay on the BIACORE™ T200 system (GE Healthcare). Human IgG Fc (Sino Biologics) was first immobilized on a CM5 biosensor chip. Subsequently, an appropriate concentration of hDLL4-Fc (Sino Biologics) and hJAG1-Fc (Sino Biologics) was captured to the surface at a Response Unit (RU) of up to 20,000. Various concentrations of N1₁₀₋₁₄Fc and N4₁₀₋₁₄Fc were then passed through the chip with running buffer (1×HBS-N (10 mM HEPES, 150 mM NaCl) with 0.005% polysorbate 20, 1 mM CaCl₂), 2 mM MgCl₂, PH 7.4). After each reaction, the captured ligands and analyte were removed by regeneration buffer (1×HBS-N (10 mM HEPES, 150 mM NaCl) with 0.005% polysorbate 20, 1 mM CaCl₂), 2 mM MgCl₂, pH 7.4). The whole reaction was conducted at 25° C. and a flow rate of 25 μl/min. Sensorgrams of each concentration were obtained and analyzed by BIACORE™ evaluation software (GE Healthcare). The equilibrium constant KD was calculated from the ratio of the dissociation rate constant kd to the association rate constant kₐ (kd/kₐ).
Surface plasmon resonance (SPR) spectroscopy was used to characterize and quantify the interactions between these proteins. […]

[2] = molecular target: T1, hDLL4-Fc (Sino Biologics); test: SPR (Biacore T200), hDLL4-Fc on the chip, decoy as analyte, multi-cycle kinetics, 25 C
Description: as §1
Surface plasmon resonance (SPR) spectroscopy was used to characterize and quantify the interactions between these proteins. Recombinant Fc-tagged hDLL4 and hJAG1 were immobilized on the sensor chip using amine coupling and multi-cycle kinetic experiments were performed using increasing concentrations of either N1₁₀₋₁₄Fc or N4₁₀₋₁₄Fc. As a control, recombinant IgG Fc was immobilized on the sensor chip.

T1 sequence (Q9NR61 27-524 limits assumed): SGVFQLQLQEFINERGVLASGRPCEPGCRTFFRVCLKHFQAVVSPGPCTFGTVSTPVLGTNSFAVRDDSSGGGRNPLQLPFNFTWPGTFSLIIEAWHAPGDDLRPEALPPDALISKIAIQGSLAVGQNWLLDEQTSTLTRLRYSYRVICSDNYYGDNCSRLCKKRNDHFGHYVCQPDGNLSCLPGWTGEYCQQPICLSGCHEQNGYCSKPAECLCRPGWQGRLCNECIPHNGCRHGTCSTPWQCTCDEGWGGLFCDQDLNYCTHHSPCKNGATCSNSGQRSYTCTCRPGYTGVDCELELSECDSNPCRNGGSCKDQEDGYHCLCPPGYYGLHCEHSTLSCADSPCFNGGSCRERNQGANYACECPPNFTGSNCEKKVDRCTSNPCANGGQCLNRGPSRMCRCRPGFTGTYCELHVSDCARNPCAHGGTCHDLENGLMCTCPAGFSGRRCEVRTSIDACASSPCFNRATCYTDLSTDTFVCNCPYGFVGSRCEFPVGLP

Kd [1]	koff [2]	kon [2]	Binder
605 nM	0.019 s⁻¹	31500 M⁻¹ s⁻¹	N110-14Fc (human Notch1 EGF-like repeats 10-14 fused to human IgG Fc) (Fc fusion, Produced in HEK293 cells; also called Notch1 peptibody; Notch1 decoy; not shown: human IgG Fc) ARGPRCISNPCNEGSNCDTNPVNGKAICTCPSGYTGPACSQDVDECSLGANPCEHAGKCINTLGSFECQCLQGYTGPRCEIDVNECVSNPCQNDATCLDQIGEFQCICMPGYEGVHCEVNTDECASSPCLHNGRCLDKINEFQCECPTGFTGHLCQYDVDECASTPCKNGAKCLDGPNTYTCVCTEGYTGTHCE
962 nM	0.0099 s⁻¹	10300 M⁻¹ s⁻¹	N410-14Fc (human Notch4 EGF-like repeats 10-14 fused to human IgG Fc) (Fc fusion, Produced in HEK293 cells; also called Notch4 peptibody; Notch4 decoy; not shown: human IgG Fc) LEDMCLSQPCHGDAQCSTNPLTGSTLCLCQPGYSGPTCHQDLDECLMAQQGPSPCEHGGSCLNTPGSFNCLCPPGYTGSRCEADHNECLSQPCHPGSTCLDLLATFHCLCPPGLEGQLCEVETNECASAPCLNHADCHDLLNGFQCICLPGFSGTRCEEDIDECRSSPCANGGQCQDQPGAFHCKCLPGFEGPRCQ
